Experiment [1] concerns the target rat CNP receptor (NPR-B) (rat) (UniProt P16067). The experiment is described as follows: cell-based or functional assay.
Experiment [2] concerns the target rat ANP receptor (NPR-A) (rat) (UniProt P18910). The experiment is described as follows: cell-based or functional assay.

Chain of rat CNP receptor (NPR-B) (rat) (P16067 17-1047): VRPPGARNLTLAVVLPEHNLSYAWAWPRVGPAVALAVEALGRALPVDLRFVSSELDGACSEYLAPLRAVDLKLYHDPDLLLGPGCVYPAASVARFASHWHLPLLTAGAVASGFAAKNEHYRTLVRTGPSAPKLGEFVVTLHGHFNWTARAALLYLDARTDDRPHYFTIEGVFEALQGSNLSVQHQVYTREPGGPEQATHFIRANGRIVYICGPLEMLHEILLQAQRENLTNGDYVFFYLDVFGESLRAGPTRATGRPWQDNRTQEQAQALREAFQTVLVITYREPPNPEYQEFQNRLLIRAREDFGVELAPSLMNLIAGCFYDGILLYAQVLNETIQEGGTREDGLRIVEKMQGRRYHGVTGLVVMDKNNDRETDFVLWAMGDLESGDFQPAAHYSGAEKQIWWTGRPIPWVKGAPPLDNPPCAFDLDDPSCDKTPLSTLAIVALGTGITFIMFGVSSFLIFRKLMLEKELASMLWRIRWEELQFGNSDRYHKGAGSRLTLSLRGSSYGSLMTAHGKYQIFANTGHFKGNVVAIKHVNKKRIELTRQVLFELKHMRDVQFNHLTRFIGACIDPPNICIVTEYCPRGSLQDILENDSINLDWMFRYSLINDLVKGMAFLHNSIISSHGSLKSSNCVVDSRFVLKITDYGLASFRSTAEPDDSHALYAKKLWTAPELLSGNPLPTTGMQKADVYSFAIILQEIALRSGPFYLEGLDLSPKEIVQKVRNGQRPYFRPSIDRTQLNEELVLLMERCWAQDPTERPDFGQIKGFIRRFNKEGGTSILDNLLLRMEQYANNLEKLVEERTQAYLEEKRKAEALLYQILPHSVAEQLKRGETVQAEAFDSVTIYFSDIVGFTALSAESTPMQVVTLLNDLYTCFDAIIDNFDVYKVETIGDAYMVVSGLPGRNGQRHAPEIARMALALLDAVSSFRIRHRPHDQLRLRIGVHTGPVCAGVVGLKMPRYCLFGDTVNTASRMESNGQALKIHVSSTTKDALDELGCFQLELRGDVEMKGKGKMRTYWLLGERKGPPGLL
Chain of rat ANP receptor (NPR-A) (rat) (P18910 29-1057): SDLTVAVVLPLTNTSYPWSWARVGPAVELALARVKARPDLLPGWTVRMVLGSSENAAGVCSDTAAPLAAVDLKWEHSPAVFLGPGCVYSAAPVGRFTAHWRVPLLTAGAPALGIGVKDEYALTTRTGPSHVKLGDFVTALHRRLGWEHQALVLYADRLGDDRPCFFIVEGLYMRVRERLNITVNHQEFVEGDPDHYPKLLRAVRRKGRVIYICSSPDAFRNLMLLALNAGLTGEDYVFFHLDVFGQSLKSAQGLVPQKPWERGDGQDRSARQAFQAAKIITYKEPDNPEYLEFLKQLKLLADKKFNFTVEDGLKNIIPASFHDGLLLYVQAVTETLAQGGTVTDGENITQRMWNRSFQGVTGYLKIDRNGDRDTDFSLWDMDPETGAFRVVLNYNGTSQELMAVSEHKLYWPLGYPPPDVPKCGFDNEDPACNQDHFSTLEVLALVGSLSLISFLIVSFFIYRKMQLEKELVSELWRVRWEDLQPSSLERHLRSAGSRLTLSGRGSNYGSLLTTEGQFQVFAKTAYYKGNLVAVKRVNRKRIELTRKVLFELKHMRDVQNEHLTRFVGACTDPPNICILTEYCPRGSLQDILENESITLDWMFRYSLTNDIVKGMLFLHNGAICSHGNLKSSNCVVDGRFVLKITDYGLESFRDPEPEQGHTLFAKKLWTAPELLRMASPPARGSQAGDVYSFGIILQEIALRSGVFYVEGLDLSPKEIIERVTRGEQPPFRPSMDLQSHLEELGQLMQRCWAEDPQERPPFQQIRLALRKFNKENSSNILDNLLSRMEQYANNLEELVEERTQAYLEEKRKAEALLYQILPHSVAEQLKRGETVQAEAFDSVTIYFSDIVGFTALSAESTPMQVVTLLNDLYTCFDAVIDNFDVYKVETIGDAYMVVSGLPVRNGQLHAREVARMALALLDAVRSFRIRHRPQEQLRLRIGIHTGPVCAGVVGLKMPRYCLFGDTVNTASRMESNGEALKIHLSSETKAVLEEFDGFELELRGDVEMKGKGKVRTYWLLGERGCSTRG

The molecule GLSKGCFGLKLDRIGSMSGLGC (peptide, from a related filing) [CNP (Bachem, H-1296)] showed an EC50, luminescence signal of rat NPR-B cGMP reporter cell line in experiment [1] of 0.024 nM.

Take SLRRSSCFGGRIDRIGAQSGLGCNSFRY (peptide, from a related filing) [ANP (Bachem, H-2100)]: the EC50, fluorescence signal of rat NPR-A cGMP reporter CHO cell line (GCaMP6/CNGA2) in experiment [2] came out at 0.22 nM.
